The results in this text go back to patent publication US20230043289A1 (AC IMMUNE, published 2023).

Where no end group is shown, it is not given here.

The target of assay [1] is T1, Human Tau monomer (recombinant 2N4R isoform, amino acids 2-441) (human, UniProt P10636-8 2-441).
T1 construct: range 2-441; also called monomeric human Tau; human monomer Tau protein
The assay is described as follows: SPR, hIgG captured, Tau monomer 3.1-100 nM. The protocol: To assess the impact of N²⁸ deamidation on the affinity for human Tau, it was desirable to obtain two samples with widely separated N²⁸ deamidation status. Hu37D3-H9.v5 hIgG4.S228P was incubated at 40° C. for two weeks at a concentration of 1 mg/ml in Phosphate Buffered Saline, pH 7.4. Deamidation of the N²⁸G²⁹ motif was measured using LC-MS/MS. […] The stressed and unstressed antibodies were analyzed for Tau binding by surface plasmon resonance (Biacore) using the GE Biacore human IgG capture kit and a Series S CM5 chip. The hIgG were diluted to 2 μg/ml in 10 mM HEPES pH7.4, 150 mM NaCl, 0.05% Tween 20 (running buffer, HBSP) and captured at a flow rate of 10 μl/min for 15 seconds (t0 sample) or 17 seconds (t2 sample). […] Between cycles the surface was regenerated using a 30 second injection of 3M Magnesium Chloride at 10 μl/min. A 1:1 binding model was fitted to the data using instrument defaults, including local fitting of the “RI” parameter.
A general note: SPR reads the build-up and loss of mass on a sensor chip optically.

Assay [2] has as its target T1, Human Tau monomer (recombinant 2N4R …). The assay is described as follows: SPR 25C, hIgG captured, Tau monomer analyte.
The target is the same in assay [3]. As to the kind of experiment: SPR 37C, hIgG captured, Tau monomer 0.1-33.3 nM. The protocol:
Affinity for human and cynomolgus monkey Tau was measured at 37° C. using a Biacore T200 instrument, the GE Biacore human IgG capture kit and a Series S CM5 Sensor Chip. Antibodies were diluted to 1 μg/ml in running buffer HBS-EP (10 mM HEPES pH7.4, 150 mM NaCl, 1 mM EDTA, 0.05% Tween 20) and captured at a flow rate of 10 μl/min for 15 seconds. Data was collected for the binding of human and cynomolgus Tau monomer, each of which was injected at 0, 0.1, 0.4, 1.2, 3.7, 11.1, and 33.3 nM, using a flow rate of 30 μl/min, a contact time of 300 s, and a dissociation time of 900 s. Between cycles, the surface was regenerated with 3M magnesium chloride. Data was fit to a 1:1 binding model using BIAEvaluation software.

The target of assay [4] is T2, Tau fragment 28-42 (human, UniProt P10636-8 28-42).
T2 construct: range 28-42
T2 peptide (looked up): GYTMHQDQEGDTDAG
The assay is described as follows: ELISA on Tau 15-mer peptides.

In assay [5] the target is T3, Tau fragment 37-51 (human, UniProt P10636-8 37-51).
T3 construct: range 37-51
T3 peptide (looked up): GDTDAGLKESPLQTP
As to the kind of experiment: ELISA on Tau 15-mer peptides. For orientation: In an ELISA, binding on a coated surface is turned into a signal by an enzyme label.

The target of assay [6] is T4, Tau fragment 1-15 (human, UniProt P10636-8 1-15).
T4 construct: range 1-15
T4 peptide (looked up): MAEPRQEFEVMEDHA
As to the kind of experiment: ELISA on Tau 15-mer peptides.

In assay [7] the target is T5, Tau fragment 19-33 (human, UniProt P10636-8 19-33).
T5 construct: range 19-33
T5 peptide (looked up): GLGDRKDQGGYTMHQ
The assay is described as follows: ELISA on Tau 15-mer peptides.

The target in assay [8] is T6, MAPT(10-24) (human, also: biotinylated (position not given here)).
T6 construct: also called Tau fragment 10-24
T6 peptide: VMEDHAGTYGLGDRK
As to the kind of experiment: ELISA on Tau 15-mer peptides.

T1 sequence (P10636 other isoform, or with tags, fused parts or gaps limits assumed): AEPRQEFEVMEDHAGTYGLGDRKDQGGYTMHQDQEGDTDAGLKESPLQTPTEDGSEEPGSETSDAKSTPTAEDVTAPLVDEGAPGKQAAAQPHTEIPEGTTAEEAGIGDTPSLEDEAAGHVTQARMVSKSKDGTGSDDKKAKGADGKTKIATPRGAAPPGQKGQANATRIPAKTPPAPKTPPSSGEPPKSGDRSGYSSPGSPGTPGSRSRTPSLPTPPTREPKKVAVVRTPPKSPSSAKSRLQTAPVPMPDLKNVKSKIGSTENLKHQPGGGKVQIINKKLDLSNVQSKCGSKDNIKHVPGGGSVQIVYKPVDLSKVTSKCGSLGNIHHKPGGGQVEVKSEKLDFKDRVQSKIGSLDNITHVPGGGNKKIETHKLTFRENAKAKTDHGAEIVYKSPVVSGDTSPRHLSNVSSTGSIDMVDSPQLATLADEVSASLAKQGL

B1: hu37D3-H9.v5 hIgG4.S228P, stressed (t = 2 weeks) (antibody, V domains shown)
VH: EVQLVESGGGLVQPGGSLRLSCAASGLIFRSYGMSWVRQAPGKGLEWVATINSGGTYTYYPDSVKGRFTISRDNSKNTLYLQMNSLRAEDTAVYYCANSYSGAMDYWGQGTLVTVSS
VL: EDVLTQTPLSLPVTPGQPASISCRSSQSIVHSNGNTYFEWYLQKPGQSPQLLIYKVSNRFSGVPDRFSGSGSGTDFTLKISRVEAEDVGVYYCFQGSLVPWTFGQGTKVEIK
modifications: light chain N28 (Kabat) partly deamidated: 43.1% increase after 2 weeks at 40 C in PBS pH 7.4
notes: human IgG4 with S228P, kappa; thermally stressed sample, a mixed population
As for B1, the dissociation constant Kd in assay [1] is 0.7 nM; in assay [2], 1.5 nM.

B2: hu37D3-H9.v93 (antibody, V domains shown)
VH: EVQLVESGGGLVQPGGSLRLSCAASGLIFRSYGMSWVRQAPGKGLEWVATINSGGTRTYYPDSVKGRFTISRDNSKNTLYLQMNSLRAEDTAVYYCANSYSGAMDYWGQGTLVTVSS
VL: EDLLTQSPSSLSASVGDRVTITCRSSQSIVHSNGNTYLEWYQQKPGKSPKLLIYKVSNRFSGVPSRFSGSGSGTDFTLTISSLQPEDFATYYCFQGTLVPWTFGQGTKVEIK
For B2, in assay [3], the equilibrium dissociation constant (Kd) amounted to 0.1 nM, the koff turned out to be 0.00102 s⁻¹ and the association rate constant (kon) worked out at 6.89e+06 M⁻¹ s⁻¹.

B3: hu37D3-H9.v83 (antibody, V domains shown)
VH: EVQLLESGGGLVQPGGSLRLSCAASGLIFRSYGMSWVRQAPGKGLEWVATINSGGTRTYYPDSVKGRFTISRDNSKNTLYLQMNSLRAEDTAVYYCANSYSGAMDYWGQGTLVTVSS
VL: DDLLTQSPLSLPVTLGQPASISCRSSQSIVHSNGNTYLEWYQQRPGQSPRLLIYKVSNRFSGVPDRFSGSGSGTDFTLKISRVEAEDVGVYYCFQGTLVPWTFGQGTKVEIK
Consider B3, for which, in assay [3], the Kd is 0.1 nM, the koff was 0.000818 s⁻¹ and the on-rate constant (kon) turned out to be 6.19e+06 M⁻¹ s⁻¹.

B4: hu37D3-H9.v76 (antibody, V domains shown)
VH: EVQLVESGGGLVQPGGSLRLSCAASGLIFRSYGMSWVRQAPGKGLEWVATINSGGTRTYYPDSVKGRFTISRDNSKNTLYLQMNSLRAEDTAVYYCANSYSGAMDYWGQGTLVTVSS
VL: DDLLTQTPLSLPVTPGQPASISCRSSQSIVHSNGNTYLEWYLQKPGQSPQLLIYKVSNRFSGVPDRFSGSGSGTDFTLKISRVEAEDVGVYYCFQGTLVPWTFGQGTKVEIK
On to B4, for which, in assay [3], the Kd was found to be 0.1 nM, the off-rate constant (koff) came to 0.000892 s⁻¹ and the kon is 6.94e+06 M⁻¹ s⁻¹.

B5: 94B2-C1 (antibody, IgG2a, V domains shown)
VH: EVQLQQSGPELVKPGASMKISCKASGYSLTGYTMNWVKQSHGKNLEWIGLISPYNGVTSYNQKFKGKATLTVDKSSNTAYMELLSLTFEDSAVYYCARQGAYWGQGTLVTVSA
VL: not shown
notes: Ex.2 hybridoma supernatant; Ex.3 recombinant mIgG2a/kappa
For the molecule B5, the binding result in assay [4] and in assay [5] was “no binding” each time.

B6: 89F4-A1 (antibody, IgG2a, V domains shown)
VH: EVQLVESGGGLVQPKGSLKLSCAASGFTFNTYAMNWVRQAPGKGLEWVARIRSKSNNYAAYFADSVKDRFTISRDDSQTMLYLQMNNLKSEDTAMYYCVSGGNYVPFAYWGQGTLVTVSA
VL: NIMMTQSPSSLAVSAGEKVTMSCKSSQSVFYSSEQRNYLAWYQQKPGQSPKLLISWASTRESGVPDRFTGSGSGTDFTLTISSVQGEDLAVYYCHQYLSSFTFGSGTKLEIK
notes: as for B5
In the case of B6, the binding result in assay [6], in assay [7] and in assay [8] was “no binding” throughout.

B7: 123E9-A1 (antibody, IgG2a, V domains shown)
VH: EVQLQQSGPELVKPGASVKMSCKASGYTFTDYYMKWVKQSHGKSLEWIGDIDPNNGGTSYNQKFKGKATLTVDKSSSTAYMQLNSLTSEDSAVYYCARSAGFGDSFSFWGLGTLVTVSA
VL: DVLMTQTPLSLPVSLGDQASISCRSSQSIVHSNGNTYLEWYLQKPGQSPKLLIYKVSNRFSGVPDRFSGSGSGTDFTLKISRVEAEDLGFYYCFQGSHVPPTFGGGTKLEIK
notes: as for B5
Turning to B7, the binding result in assay [6], in assay [5] and in assay [8] was “no binding” throughout.

B8: 19H6-F7 (antibody, IgG2a, V domains shown)
VH: EVQLVESGGDLVKPGGSLKLSCAASGFTFSSYGMSWVRQTPDKRLEWVATISSGGTYTYYPDSVKGRFTISRDNAKNTLYLQMSSLKSEDTAMYYCAPSYDGAMDYWGQGTSVTVSS
VL: DVLMTQTPLSLPVSLGDQASISCRSSQSIVHSNGNTYLEWYLQKPGQSPKLLIYKVSNRFSGVPDRFSGSGSGTDFTLKISRVEAEDLGVYYCFQGSLVPWTFGGGTKLEIK
notes: as for B5
Take B8: the binding result in assay [6], in assay [7], in assay [4] and in assay [5] was “no binding” throughout.

B9: 3A4-H4 (antibody, IgG2a, V domains shown)
VH: EVQLVESGGDLVKPGGSLKLSCAASGFTFSSYGMSWVRQTPDKRLEWVATISSGGTYTYYPDSVKGRFTISRDNAKNTLYLQMSSLKSEDTAMYFCATSYDGAMDYWGQGTSVTVSS
VL: DVLMTQTPLSLPVSLGDQASISCRSSQNIVHSNGNTYLEWYLQKPGQSPKLLIYKVSNRFSGVPDRFSGSGSGTDFTLKISRVEAEDLGVYYCFQGTLVPWTFGGGTKLEIK
notes: as for B5
Consider B9, for which the binding result in assay [6], in assay [7], in assay [4] and in assay [5] was “no binding” in each case.

B10: 54C1-H11 (antibody, IgG2a, V domains shown)
VH: EVQLVESGGDLVKPGGSLKVSCVASGFTFRSYGMSWVRQTPDKRLDWVATISSGGNYTYYPDSVKGRFTISRDNAKNTLYLQMSSLKSEDTAMYYCASSYSGAMDYWGQGTSVTVSS
VL: DTVMTQSPLSLPVSLGDQASISCRSSQSIVHSNGNTYLEWYLQKPGQSPKLLIYTVSNRFSGVPDRFSGSGSGTDFTLKISRVEAEDLGVYYCFQGSHVPWTFGGGTKLEIK
notes: as for B5
As to B10, the binding result in assay [6], in assay [7], in assay [4] and in assay [5] was “no binding” throughout.

A word on the Kd: it is a measure of binding affinity in units of concentration. What is called koff is the first-order rate constant of dissociation. Broadly, the kon is the second-order rate constant of association.
